Consider 34 molecules from PMC5290273 (Nature Communications, 2017).

First the molecules themselves.
T1: Sumo-ELL2^Occ (human, UniProt O00472 519-640)
T1 sequence (looked up): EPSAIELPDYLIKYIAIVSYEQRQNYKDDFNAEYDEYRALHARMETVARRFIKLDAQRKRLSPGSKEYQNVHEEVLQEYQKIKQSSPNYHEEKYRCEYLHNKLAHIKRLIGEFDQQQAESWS

T2: Sumo-ELL2^Occ, wild type (human, UniProt O00472 519-640)
T2 sequence (looked up): T1 sequence (looked up)

T3: ELL2^Occ (ELL2 residues 519–640), the ELL2 part of the crystallised fusion (human, UniProt O00472 519-640, selenomethionine (SeMet crystals used for phasing and refinement))
T3 sequence (looked up): T1 sequence (looked up)

B1: fluorescently labelled AFF1^ELLBow peptide 358–390 (peptide)
peptide: {5FAM-GABA}-EILKEMTHSWPPPLTAIHTPSTAEPSKFPFPTK-NH2
SMILES: CC[C@H](C)[C@H](NC(=O)[C@H](C)NC(=O)[C@@H](NC(=O)[C@H](CC(C)C)NC(=O)[C@@H]1CCCN1C(=O)[C@@H]1CCCN1C(=O)[C@@H]1CCCN1C(=O)[C@H](Cc1c[nH]c2ccccc12)NC(=O)[C@H](CO)NC(=O)[C@H](Cc1c[nH]cn1)NC(=O)[C@@H](NC(=O)[C@H](CCSC)NC(=O)[C@H](CCC(=O)O)NC(=O)[C@H](CCCCN)NC(=O)[C@H](CC(C)C)NC(=O)[C@@H](NC(=O)[C@H](CCC(=O)O)NC(=O)CCCNC(=O)c1ccc2c(c1)C(=O)OC21c2ccc(O)cc2Oc2cc(O)ccc21)[C@@H](C)CC)[C@@H](C)O)[C@@H](C)O)C(=O)N[C@@H](Cc1c[nH]cn1)C(=O)N[C@H](C(=O)N1CCC[C@H]1C(=O)N[C@@H](CO)C(=O)N[C@H](C(=O)N[C@@H](C)C(=O)N[C@@H](CCC(=O)O)C(=O)N1CCC[C@H]1C(=O)N[C@@H](CO)C(=O)N[C@@H](CCCCN)C(=O)N[C@@H](Cc1ccccc1)C(=O)N1CCC[C@H]1C(=O)N[C@@H](Cc1ccccc1)C(=O)N1CCC[C@H]1C(=O)N[C@H](C(=O)N[C@@H](CCCCN)C(N)=O)[C@@H](C)O)[C@@H](C)O)[C@@H](C)O
notes: also called fluorescent peptide
B2: His6-AFF4^ELLBow L331D (domain or fragment, human, UniProt Q9UHB7 301-351, looked up)
chain: PSQPLDASASGDVSCVDEILKEMTHSWPPPDTAIHTPCKTEPSKFPFPTKE
B3: AFF4^ELLBow (AFF4 residues 301–351), the AFF4 part of the crystallised fusion (domain or fragment, human, UniProt Q9UHB7 301-351, looked up)
chain: B2 chain with D31L
modifications: not fully specified (residue 23); cysteine pairing not given here
B4: His6-tagged wild-type AFF4^ELLBow (AFF4 301–351) (peptide, UniProt Q9UHB7 301-351, looked up)
chain: B2 chain with D31L
B5: His-tagged AFF4^ELLBow (301–351) F345D/F347D (peptide, UniProt Q9UHB7 301-351, looked up)
chain: B2 chain with D31L, F45D, F47D
B6: GST-ELL2 (519–640) H559E (domain or fragment, human, UniProt O00472 519-640, looked up)
chain: T1 sequence (looked up) with H41E
B7: His-tagged AFF4^ELLBow (301–351) I334D (peptide, UniProt Q9UHB7 301-351, looked up)
chain: B2 chain with D31L, I34D
B8: GST-ELL2 (519–640) K625T (domain or fragment, human, UniProt O00472 519-640, looked up)
chain: T1 sequence (looked up) with K107T
B9: His6-AFF4^ELLBow I334D (domain or fragment, human, UniProt Q9UHB7 301-351, looked up)
chain: B2 chain with D31L, I34D
B10: His6-AFF4^ELLBow M323D (domain or fragment, human, UniProt Q9UHB7 301-351, looked up)
chain: B2 chain with M23D, D31L
B11: His-tagged AFF4^ELLBow (301–351) E322H (peptide, UniProt Q9UHB7 301-351, looked up)
chain: B2 chain with E22H, D31L
B12: His-tagged AFF4^ELLBow (301–351) double 328–329 Pro–Gly mutant (peptide, UniProt Q9UHB7 301-351, looked up)
chain: B2 chain with P28G, P29G, D31L
B13: His6-AFF4^ELLBow E322H (domain or fragment, human, UniProt Q9UHB7 301-351, looked up)
chain: B2 chain with E22H, D31L
B14: His6-AFF4^ELLBow P342D (domain or fragment, human, UniProt Q9UHB7 301-351, looked up)
chain: B2 chain with D31L, P42D
B15: His-tagged AFF4^ELLBow (301–351) I319D/L320D (peptide, UniProt Q9UHB7 301-351, looked up)
chain: B2 chain with I19D, L20D, D31L
B16: His6-AFF4^ELLBow T332K (domain or fragment, human, UniProt Q9UHB7 301-351, looked up)
chain: B2 chain with D31L, T32K
B17: His6-AFF4^ELLBow V316D (domain or fragment, human, UniProt Q9UHB7 301-351, looked up)
chain: B2 chain with V16D, D31L
B18: His6-AFF4^ELLBow L331D/I334D (domain or fragment, human, UniProt Q9UHB7 301-351, looked up)
chain: B2 chain with I34D
B19: His6-AFF4^ELLBow K321P (domain or fragment, human, UniProt Q9UHB7 301-351, looked up)
chain: B2 chain with K21P, D31L
B20: His-tagged AFF4^ELLBow (301–351) M323D (peptide, UniProt Q9UHB7 301-351, looked up)
chain: B2 chain with M23D, D31L
B21: His6-AFF4^ELLBow W327D (domain or fragment, human, UniProt Q9UHB7 301-351, looked up)
chain: B2 chain with W27D, D31L
B22: His6-AFF4^ELLBow F345D/F347D (domain or fragment, human, UniProt Q9UHB7 301-351, looked up)
chain: B2 chain with D31L, F45D, F47D
B23: His-tagged AFF4^ELLBow (301–351) W327D (peptide, UniProt Q9UHB7 301-351, looked up)
chain: B2 chain with W27D, D31L
B24: His6-AFF4^ELLBow D317P/E318P (domain or fragment, human, UniProt Q9UHB7 301-351, looked up)
chain: B2 chain with D17P, E18P, D31L
B25: His-tagged AFF4^ELLBow (301–351) L331D (peptide, UniProt Q9UHB7 301-351, looked up)
chain: B2 chain
B26: His6-AFF4^ELLBow I319D/L320D (domain or fragment, human, UniProt Q9UHB7 301-351, looked up)
chain: B2 chain with I19D, L20D, D31L
B27: His-tagged AFF4^ELLBow (301–351) P342D (peptide, UniProt Q9UHB7 301-351, looked up)
chain: B2 chain with D31L, P42D
B28: His-tagged AFF4^ELLBow (301–351) I319D/L320D/M323D (peptide, UniProt Q9UHB7 301-351, looked up)
chain: B2 chain with I19D, L20D, M23D, D31L
B29: GST-ELL2 (519–640) H608E (domain or fragment, human, UniProt O00472 519-640, looked up)
chain: T1 sequence (looked up) with H90E

Substitutions are numbered along the chain they refer to. Numbers in names are those of the source. No end group written: not given here. *: point of attachment. 5FAM = O=C1OC2(c3ccc(O)cc3Oc3cc(O)ccc32)c2ccc(C(=O)*)cc21; GABA = NCCCC(=O)O

The target of test [1] is ELL2^Occ–(Gly-Ser)4–AFF4^ELLBow (human) (UniProt O00472). Nature of the test: SEC; Hiload 16/60 (GE) gel filtration; elution volumes; 44 kDa and 17 kDa markers shown in panel a.
Another test concerns the target Sumo-ELL2^Occ (human) (UniProt O00472). Nature of the test: fluorescence polarisation. Background: In fluorescence polarisation assays a small probe gives low polarisation when free and higher when bound to something large.
Test [2] deals with Sumo-ELL2^Occ, wild type (human) (UniProt O00472). Kind of test: fluorescence polarisation.
Test [3] addresses AFF4, endogenous (human (endogenous in HEK 293T)) (UniProt Q9UHB7).
The target of the next test is T1, Sumo-ELL2^Occ. Nature of the test: fluorescence polarisation. The conditions noted are these: both partners purified.
The next test concerns the target T2, Sumo-ELL2^Occ, wild type. Nature of the test: fluorescence polarisation. The conditions noted are these: both partners purified.
Test [4] concerns the target T3, ELL2^Occ (ELL2 residues 519–640), the …. Nature of the test: crystal structure. To be noted: both partners purified.
In test [5] the target is B4. Kind of test: pull-down. To be noted: both partners purified.

AFF4, endogenous (human (endogenous in HEK 293T)), sequence (Q9UHB7 whole entry): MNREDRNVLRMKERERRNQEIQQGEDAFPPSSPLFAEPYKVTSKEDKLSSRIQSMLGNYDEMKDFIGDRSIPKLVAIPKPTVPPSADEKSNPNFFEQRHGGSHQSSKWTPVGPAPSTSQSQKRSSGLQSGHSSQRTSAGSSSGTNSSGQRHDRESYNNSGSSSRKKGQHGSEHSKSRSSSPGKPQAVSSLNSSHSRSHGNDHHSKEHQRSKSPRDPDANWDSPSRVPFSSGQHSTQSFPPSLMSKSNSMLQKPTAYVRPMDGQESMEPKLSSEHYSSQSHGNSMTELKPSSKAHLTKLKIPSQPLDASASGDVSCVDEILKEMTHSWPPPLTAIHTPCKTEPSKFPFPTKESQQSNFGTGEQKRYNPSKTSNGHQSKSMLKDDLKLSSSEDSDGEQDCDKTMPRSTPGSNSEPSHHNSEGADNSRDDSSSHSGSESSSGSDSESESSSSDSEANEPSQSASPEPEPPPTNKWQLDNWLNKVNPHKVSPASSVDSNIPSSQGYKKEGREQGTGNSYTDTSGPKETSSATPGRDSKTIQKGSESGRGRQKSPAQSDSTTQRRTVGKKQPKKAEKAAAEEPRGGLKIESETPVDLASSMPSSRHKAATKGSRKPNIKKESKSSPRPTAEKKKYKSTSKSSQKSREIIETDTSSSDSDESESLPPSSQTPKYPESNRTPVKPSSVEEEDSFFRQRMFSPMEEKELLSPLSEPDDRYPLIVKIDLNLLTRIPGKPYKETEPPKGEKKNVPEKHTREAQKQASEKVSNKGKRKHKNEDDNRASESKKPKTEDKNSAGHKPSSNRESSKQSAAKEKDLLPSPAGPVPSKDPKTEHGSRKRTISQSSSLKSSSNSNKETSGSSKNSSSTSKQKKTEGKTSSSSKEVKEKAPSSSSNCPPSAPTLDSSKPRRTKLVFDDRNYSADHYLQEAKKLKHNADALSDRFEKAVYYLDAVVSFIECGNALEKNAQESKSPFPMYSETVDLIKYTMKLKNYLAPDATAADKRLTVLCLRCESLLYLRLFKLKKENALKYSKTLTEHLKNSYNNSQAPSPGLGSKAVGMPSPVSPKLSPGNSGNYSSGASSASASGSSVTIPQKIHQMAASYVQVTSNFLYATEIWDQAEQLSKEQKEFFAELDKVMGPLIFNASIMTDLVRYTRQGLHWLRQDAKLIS

In general, stoichiometry N refers to a count of units in the complex or per binding partner. Regarding “ELL2^Occ–(Gly-Ser)4–AFF4^ELLBow (from UniProt O00472 519-640; Q9UHB7 301-351)”, in test [1], the stoichiometry N came out at 2. As usually defined, the Kd is the constant that tells how readily two partners part at equilibrium. Read a high Kd as a looser complex. “His6-AFF4^ELLBow P328G/P329G (from UniProt Q9UHB7 301-351) (domain or fragment)” registered a Kd in the test with Sumo-ELL2^Occ (human) of 270 nM.

Consider “His-tagged AFF4^ELLBow (301–351) D317P/E317P (from UniProt Q9UHB7 301-351) (peptide)”, for which the other in test [2] is 10 fold. As to “HA-tagged ELL2^H559E/H608E/N619A/K625T (from UniProt O00472 1-640) (natural protein)”, the other (fold less than wild type) in test [3] came to 5. In the test with Sumo-ELL2^Occ, EILKEMTHSWPPPLTAIHTPCKTEPSKFPFPTK (peptide, UniProt Q9UHB7 318-350, looked up) [AFF4 WT, 318-350 peptide] displayed a Kd of 4000 ± 1570 nM. In the case of B1, the binding result in the test with Sumo-ELL2^Occ, wild type is reported as “binds”. B2: the Kd with Sumo-ELL2^Occ is 1600 ± 310 nM. For the molecule B3, the binding result in test [4] is reported as “binds”. B4 showed a Kd in the test with Sumo-ELL2^Occ, wild type of 86 nM. Consider B5, for which, in the test with Sumo-ELL2^Occ, wild type, the other is under 2 fold.

Turning to B6, in test [5], the binding result is on record as “binds”. In turn, B7 had an other in the test with Sumo-ELL2^Occ, wild type of 8 fold. On to B8, for which the binding result in test [5] is “binds”. B9 showed a Kd in the test with Sumo-ELL2^Occ of 670 ± 210 nM.

In turn, B10 displayed a Kd with Sumo-ELL2^Occ of 2700 ± 1140 nM. B11: the other with Sumo-ELL2^Occ, wild type was under 2 fold.

For B12, in the test with Sumo-ELL2^Occ, wild type, the other turned out to be 3 fold. In turn, B13 came in with a Kd in the test with Sumo-ELL2^Occ of 130 ± 33 nM.

On to B14, for which the affinity with Sumo-ELL2^Occ, expressed as Kd, was 200 ± 50 nM.

As for B15, in the test with Sumo-ELL2^Occ, wild type, the other is over 25 fold. B16 gave a dissociation constant (Kd) in the test with Sumo-ELL2^Occ of 69 ± 37 nM. The molecule B17 yielded a Kd in the test with Sumo-ELL2^Occ of 230 ± 48 nM. On the same count and under the same terms, with B18 the figure was 1900 ± 510 nM. On the same count and under the same terms, with B19 the figure was 240 ± 60 nM. Molecule B20 gave an other with Sumo-ELL2^Occ, wild type of over 25 fold.

In turn, B21 returned a Kd in the test with Sumo-ELL2^Occ of 370 ± 86 nM. Still for that read-out and setting: with B22 the figure was 130 ± 58 nM. As to B23, in the test with Sumo-ELL2^Occ, wild type, the other came to 4 fold. In the test with Sumo-ELL2^Occ, B24 gave a Kd of 800 ± 180 nM.

In the test with Sumo-ELL2^Occ, wild type, B25 gave an other of about 20 fold. In turn, B26 came in with a Kd with Sumo-ELL2^Occ of 5400 ± 1870 nM. On to B27, for which the other in the test with Sumo-ELL2^Occ, wild type is about 3 fold. Molecule B28 gave a Kd in the test with Sumo-ELL2^Occ, wild type of over 3000 nM.

For the molecule B29, the binding result in test [5] was “binds”.
